We go through 19 sequences from a protein production outcome set (Wang et al. 2014).

The data set in a line: label from the status in PepcDB records.
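Also: failed if final PepcDB status was selected cloned or expressed and not failed if soluble or beyond.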

For the sequence “MDDVLRRNPLFAALDDEQSAELRASMSEVTLARGDTLFHEGDPGDRLYVVTEGKVKLHRTSPDGRENMLAVVGPSELIGELSLFDPGPRTATGTALTEVKLLALGHGDLQPWLNVRPEVATALLRAVARRLRKTNDAMSDLVFSDVPGRVARALLDLSRRFGVQSEEGIHVVHDLTQEELAQLVGASRETVNKALADFAQRGWLRLEARAVILLDVERLAKRSR”, the protein production result is given as “failed”.

As for “MDEFDYVRRKLIERILHLTEKQPVVRPLPGLTVGRRESPTEPSTYILPPSICIAVQGAKRVLIGEEYYVYDVENFLLNSFDVPVVAQVIEASKEKPYIGMTWEIDMEILMEIVVEQKLNTRPITSSRGTSLGKVTHQLLDAFRRMLELLDEPEHISALLPVIKKEIIYRLLVSEQGPRL”, the protein production entry is listed as “failed”.

With “MDEKLVKEVIFSFREVQRKTHHVLAEEAANREITTTQLLAIRELQKESDLTLGELAERMKLGKSTVSGIVDRLVKAGFLKRTRNESNRRALSLELTEKGATKAAETYHVFFNRLEPILEIGEERLKEMLEMHQEIITILEREGARD”, the protein production result is on record as “failed”.

Regarding “MDEKRLKILEAAMEEFTEKGYQAASTNKICAKAGVSKGLIFHYFGSKEKLYIAAVSYAVDFATNEVSLEEKRWSDFVEMAIWSTKMKLDFNRKYPAIFGLIMQAYGNPPPELKGKLDGFFDKAIERSEAQMNQVLNEMQLKKDVNMDAARKVMEALFQHITEKSTVFLQRHPNATMEDFIPLANDFTEMMRIVEFGICEEKKDSGE”, the protein production entry was “failed”.

As for “MDENSLIYGLELQARALTPQYGESNDVCFFIATNSLKPTNQVHLIQYEEEQGSVQSKVFEHALGEVWKLNSCPRNPRLLASVYNVQKGAQVLTKAALFTLPENLNPDPEQLKSEYLPWEQVEVLDTEALGERVKTIEFHPNQDTLACVVDNKVAVMQRAESSTRVVAEVPASGSSSGSAKHTQHFTSGKWSHHHQGHQFLTLQDGNLSAYDVRDTQHCAWSINDAHGQMVRDLDCNPNKQCHLVTGGDDGYLRIWDCRMPKAPVFERSDHSHWVWCVRFNTFHDQLILSSSSDCKVLLTCAGSVSSETQVQAGLDESNFSGADAEERHKLLPDGLLQTFDQHEDSVYCAEWSNVDPWIFASLSYDGRVIISKVPKQYKYQIIF”, the protein production entry is given as “failed”.

In the case of “MDEQVIFTTNTSGTIASVHSFEQINLRQCSTQSRNSCVQVGNKYLFIAQAQKALINVYNLSGSFKRESVEQRLPLPEILKCLEVVENDGVQYDRIQGVNHNLPDFNLPYLLLGSTESGKLYIWELNSGILLNVKPMAHYQSITKIKSILNGKYIITSGNDSRVIIWQTVDLVSASNDDPKPLCILHDHTLPVTDFQVSSSQGKFLSCTDTKLFTVSQDATIRCYDLSLIGSKKKQKANENDVSIGKTPVLLATFTTPYSIKSIVLDPADRACYIGTAEGCFSLNLFYKLKGNAIVNLLQSAGVNTVQKGRVFSLVQRNSLTGGENEDLDALYAMGQLVCENVLNSNVSCLEISMDGTLLLIGDTEGKVSIAEIYSKQIIRTIQTLTTSQDSVGEVTNLLTNPYRLERGNLLFEGESKGKQPSNNNGHNFMKIPNLQRVIFDGKNKGHLHDIWYQIGEPEAETDPNLALPLNDFNAYLEQVKTQESIFSHIGKVSSNVKVIDNKIDATSSLDSNAAKDEEITELKTNIEALTHAYKELRDMHEKLYEEHQQMLDKQ”, the protein production result was “failed”.

“MDERPEGGDAQGAREGRDARGDGEPDEVVSGELLPYDDIAGVAAASVGLHALADDLAGERRELAVELRKFFVVLRLSVRRYAALRPYSPSSVSRYLSGDLVAPDHFVATLMDDVGRELGRPLSAQARGRVTGLQRAALRSSNSRAWKVQELEDRLAAAHQDAQVARTQADAVATLLHAERQRVAGVEEERQELARTLEAHQATSGAELDVLRAQQHRVRAERDTLRRRVADLEAALAAAEHRVAEAEQRCADLEHELLTADAAAAAEESAAAEQERARQQAELGSLRDEVARLRVAAERVPETSPARGTQAPRTSVHGAEADATGPVSGDRSAAAPADVPGAASSVTIVYAGFNRAWAAWIGDRLERWGVRAVLMLWDVPADIPLIDLLRDLKLAEGRILIVVSEWYFQLGLRSHDEWNEALREVVAPDPSRFVAVSVTNAPVPSAAAVLAAVDLTDTGADEAERRLLARLVGLPGDSLPAASGGERRGPRFPAATPEVWGGVPRRNTRFTGRESLLSDAYSLLKGAEPGAGVLTLHGMSGVGKTQLAVEYVYRFSSEYDVVWWVGADNRGVFRQTLAELASRLGLSTGAEYGERLRAVRDSLRRGDPYARWLLILDGADDPDQIEDLVPTGPGHVLITSRNLKWGEHNSELLEVPVYDRPESVAFIRRRAPRLAEADADRLAEALEDLPLLLDQTAGWLNDSDLSVGEYIALLDGGIDQDVVKVSADFPIAFRTAWSILLNKVRETVPEAVDLLRLCTFFAPGLIPVRFLREMPHNELPETITGLLNDRLLWNKAIHQLRQYSVVRLESHEAATDGSTSSGESLYLHRMVHQIVRNDMPEDERHEFAAVVRRALASADPGRPTDTRHWGEYAEIVPHLKYADVLDSPDPGVQRLVLNCLGYLHLSGRYAAGVELAERALEAWRELLGDTHPVIWELTAHHTNLLRSTGDYRRTEAVDRAAVEHLREERGELDPDHLRAAAGLAADLRGLGRYGEALELTRRLLTSCLDLLGEQDSRTLDAQHDLGFSLRLLGRYEEALDVDRRTLEARRALLSGRHPGILLSETSCATDLRLLGHYAEAESAQATNARAQRAVMGSDNPQTLRAEHNLALCQYRAGDREKAGKLFSRVLERYERTLGETDPLTLAAAVSQSCFAREYGDIDQAGAASESLIARYEAMLTDGHPFTIGARANHVLLLRQVGARDEARFGAEKALTAMAAAMGESHPWTLGCAINAAAVRQFIGDVESAAELSGSTVARATDALGRTHPLTLSARVAQAADLRGLREHRRAEEIEQEVLADLAATLGSRHVHTVSARSRNRPYWDFEPQPT”: the protein production result is “failed”.

In the case of “MDESCERVKAIYNEHEYLEAYSRHTDLRVDVDPKLAIGGMWEEIGKLQFEYLTKKGLQCHHELLDIGCGTLRGGRHFIKYLNSSNYYGVDISFKAIESAKELVVEEKLSDKKPQLLLDKNKSLNFNCYLGKTFDFIFAQSVFTHLKPEHISECFENIGQIMNEDSAFYFTYNNSVEYREVGFKNFYYPFDFFENLVERNGFKLKECKSEYAHPRGQIMVEIVKR”, the protein production result is reported as “failed”.

As for “MDESVKSLMLPPPPPLLPPSQGYGSRKIDGDSITNKQIKKFWRQKQIIEEDHLYSAIKAAARVRARNLSDEDYKRFEESLDMEDLETEDHQGLKDWWTKSKYAYLNQPALGSADSLKRKRFSTYTPNCFSFKPCNPLYATSLNVF”, the protein production result is given as “failed”.

Take “MDETPIFKIKKLTIAENDRSEYIRYAEKNMHDSIPAEEGTLLIGSGHDDAHGEDNYEIEVFRNKGAEDLHIAGSHADDFVETVNKIATKQKVIDLHPEVITTKAQRALNSYADNFVMRLIKVEVKDADAEKFSHAVKKEMTTSMASEPGMEIMMSGTNIDNPNEWYFIEVYANDEAYDIHVKTPHYKEYIEETDGMVKSRDVKTLVRDTLATQGAIVLD”: the protein production result is “not failed”.

As for “MDFDLSEEQRLLKESVEGLLKGSYDFDSRKKYAKEKGGWSRAVWGKFAEQGLLGLPFSEEDGGFGAGAVETMIVMEALGHSLVLEPYLPTVVIGGGFLRRAGSAAQKAAHLPGIIDGSKTFAFAQLEKNSRWDLGDVSTTAKKSGDGWVIDGEKFVVLNGEAADTLIVTARTKGGQRDRTGVGVFLVPADAKGITRKGYPTQDGLHAADITFTGVQVGADAAIGDPENALELIEAVVDDARTALCAEAVGLMDESLTTTVEYIKTRKQFGVPIGSFQVLQHRAADMFVATEQARSMAMFATMAAEFDDAKERAGAIAAAKVQIGKSGKFVGQQSIQLHGGIGMTMEAKIGHYFKRLTMIEQTFGDTDHHLARVSAGGGLI”, the protein production entry is recorded as “not failed”.

For “MDFFFVEYRDPLVGLIILTILVFVVAVANYIWKIFANKDEEQKLEKFIKKFEMDNAHKELLRNSSLSFGNLSFLAEIFTKSGEFEKATQIYLIALEKCKDKQEREFIFLSLAKVYFKAGFLERAKEVLLQALKLRPRNIQALKLLKIVYLKLRSYKENLELLECLFELNEDVQKERDFIKALELCTFNITDEEKKKKLLEFKIEDNPMLGRLVFEKYHMFLGQNFFDICDLLYRENEAFNLENQDFLEFFYALGKISKHDDTHQFVFKNSNFKMLKILKDNSFNAGLEFSYRCSECKNVMPLFFYHCPVCYEFNTCKIIYEVKNNETH”, the protein production entry is given as “failed”.

For “MDFFTDQVKKKFSDKKPESSDPEPNHNKNKPGHTEPTTHKPGHGEPTTHKPVSNTDPTTHRPATNAELMASAKIVAEAAQAAARHESDKLDKAKVAGATADILDAASRYGKLDEKSGVGQYLEKAEQYLHKYETSHSHSSTGGTGSHGNVGGHGGGAGAPAAKKEDEKSGGGHGFGDYAKMAQGFMK”, the protein production entry was “failed”.

As for “MDFPQHSQHVLEQLNQQRQLGLLCDCTFVVDGVHFKAHKAVLAACSEYFKMLFVDQKDVVHLDISNAAGLGQVLEFMYTAKLSLSPENVDDVLAVATFLQMQDIITACHALKSLAEPATSPGGNAEALATEGGDKRAKEEKVATSTLSRLEQAGRSTPIGPSRDLKEER”, the protein production entry is “failed”.

Regarding “MDFRALALSLLLWLVPLWACANDQLDKLTQQVYQYPTKALAQITELEKQQQTDNTSNIDKLRLSILKCQNLLQLGENEAAINLAQMGEAHAKQLKLDQARPYFFNCQADAYLNYDNIQDALPLLDSAITLARRYQQPQALIDALRLRGQLDTNTDNFSSAIEDLRIAIDIYPDIHTQTQNWIWPPEAVGSPHNS”, the protein production entry is on record as “failed”.

On to “MDFSDLDYSDAGDSGWTMYLGHSSSVSLHHFDYHNGETKQEHDEDSSMVSDASSGPPYYCEETVHEDHLQQNTQYWCKSKSKNKNKNKKKVHEEQGYSERFNSSFDDTASSLEKVNSGFLQQAFPVDKLALDNQGGDNQRKRRG”, for which the protein production result is recorded as “failed”.

As to “MDFSLTEEQELLLASIRELITSNFPEEYFRTCDQTGTYPKEFMQALAENGISMLGVPEEFGGIPADYVTQMLALMEISKCGAPAFLITNGQCIHSMRRFGSAEQLRKTAESTLATGDPAYALALTEPGAGSDNNSATTTWTRKNGKVYLNGQKTFITGAKEYPYMLVLARDTEPKDPKKAFTLWWVDSNKPGIKINPLHKIGWHMLSTCEVYLDNVEVDESDRVGEEGMGFLNVMYNFEMERLINAARSTGFAECAFEDAARYANQRIAFGKPIGHNQMIQEKLALMAIKIENMRNMVLKVAWQADREESLRTSAALAKLYCARTAMEVIDDAIQIMGGLGYTDEARVSRFWRDVRCERIGGGTDEIMIYVAGRQILKDYQNK”, the protein production result was “failed”.

Turning to “MDGEIDADELRSKLDEETVRVVDIRSPGAFERGHIPESENVPFPSLVDEVERFEGDDEVVTVCPKGKSSVQAARLIASYEGFDGDVVSFAPGLNGWDGPLERAEDEETPADTAAADRDSDEGPAAPF”, the protein production result was “failed”.

In the case of “MDGRPLNRTTRAVAMIAVTIPAHNEQALIGPCLQSIRVAAQHPALQGEAVEIHVALDRCTDQTGVIARAHGAITQEVCGGVGVARAAAASAAIARGAHWLACTDADTRVPPDWLMAQLACAADAFCGVVEVTDWRDHLSQTRAAFLASEIRHDGHPHVHGANLGMRTSAYLAAGGFSNASSSEDVALVAALEQAGMRIARLASPVVNTSARRSARASGGFADYLLRLEAALLAASPSLGLEHHHHHH”, the protein production result was “failed”.
